Test results as given in patent US20150368338A1 (Janssen / Centocor, published 2015).

T1: IFN-αF (human, UniProt P01568 24-189)
T1 construct: Recombinant, HEK293; also called IFN-α21
T1 chain: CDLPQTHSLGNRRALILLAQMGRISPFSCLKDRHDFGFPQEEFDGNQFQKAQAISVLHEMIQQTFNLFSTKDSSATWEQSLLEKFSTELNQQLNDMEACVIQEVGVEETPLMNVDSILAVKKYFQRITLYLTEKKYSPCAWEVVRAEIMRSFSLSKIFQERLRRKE


Key:
[1] = target: T2, IFN-αG (human, UniProt P01569 24-189); experiment: ProteOn SPR, cell supernatant;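 also: each binding measurement used just a single antigen concentration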
T2 construct: Recombinant, HEK293; also called IFN-α5
Excerpt: (§1) To increase the assay throughput, only one concentration of the individual antigen was used.

[2] = target: T3, IFN-αWA (human, UniProt P05015 24-189); experiment: ProteOn SPR, cell supernatant;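 also: each binding measurement used just a single antigen concentration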
T3 construct: Recombinant, HEK293; also called IFN-α16
Excerpt: as §1

[3] = target: T4, IFN-αJ1 (human, UniProt P01567 24-189); experiment: ProteOn SPR, cell supernatant;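 also: each binding measurement used just a single antigen concentration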
T4 construct: Recombinant, HEK293; also called IFN-α7
Excerpt: as §1

[4] = target: T5, IFN-αC (human, UniProt P01566 24-189); experiment: ProteOn SPR, cell supernatant;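 also: each binding measurement used just a single antigen concentration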
T5 construct: Recombinant, HEK293; also called IFN-α10
Excerpt: as §1

[5] = target: T1, IFN-αF; experiment: ProteOn SPR, cell supernatant;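 also: each binding measurement used just a single antigen concentration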
Excerpt: as §1

[6] = target: T6, IFN-α4a (human, UniProt P05014 24-189); experiment: ProteOn SPR, cell supernatant;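 also: each binding measurement used just a single antigen concentration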
T6 construct: Recombinant, HEK293; also called IFN-αM1
Excerpt: as §1

[7] = target: T7, human IFN-ω (human, UniProt P05000 24-195); experiment: ProteOn SPR, cell supernatant
T7 construct: Recombinant, HEK293; also called interferon omega
Excerpt: as §1

[8] = target: T2, IFN-αG; experiment: cell-based or functional assay
[9] = target: T5, IFN-αC; experiment: cell-based or functional assay
[10] = target: T1, IFN-αF; experiment: cell-based or functional assay
[11] = target: IFN-αH2 (human, UniProt P01570 24-189); experiment: cell-based or functional assay
[12] = target: IFN-α4a (human, UniProt P05014 24-189); experiment: cell-based or functional assay
[13] = target: IFN-αJ1 (human, UniProt P01567 24-189); experiment: cell-based or functional assay
[14] = target: IFN-αWA (human, UniProt P05015 24-189); experiment: cell-based or functional assay
[15] = target: human IFN-ω (human, UniProt P05000 24-195); experiment: cell-based or functional assay
[16] = target: IFN-αK (human, UniProt P05013 24-189); experiment: cell-based or functional assay
[17] = target: IFN-αI (human, UniProt P01571 24-189); experiment: cell-based or functional assay

Binder | Kd [1] [nM] | Kd [2] [nM] | Kd [3] [nM] | Kd [4] [nM] | Kd [5] [nM] | Kd [6] [nM] | Kd [7] [nM] | IC50, ISRE assay [8] [nM] | IC50, ISRE assay [9] [nM] | IC50, ISRE assay [10] [nM] | IC50, ISRE assay [11] [nM] | IC50 (pM), ISRE assay [12] [pM] | IC50 (pM), ISRE assay [13] [pM] | IC50 (pM), ISRE assay [14] [pM] | IC50 (pM), ISRE assay [15] [pM] | IC50 (pM), ISRE assay [16] [pM] | IC50 (pM), ISRE assay [17] [pM]
IFWM3385 (antibody, IgG1, V domains shown, mAb; IgG1/kappa said of the parent and of selected mAbs; also called IFWB3120) VH: EVQLVQSGAEVKKPGESLKISCKGSGYSFTSYWIGWVRQMPGKGLEWMGIIDPSDSDTRYSPSFQGQVTISADKSISTAYLQWSSLKASDTAMYYCARHPGLAWAPDFDYWGQGTLVTVSS VL: DIQMTQSPSSLSASVGDRVTITCRASQSIGDFLNWYQQKPGKAPKLLIYFASSLQSGVPSRFSGSGSGTDFTLTISSLQPEDFATYYCQQALDFPLTFGQGTKVEIK | 0.023 | 0.052 | 0.142 | 0.041 | 0.041 | 0.178 | 0.032 | 0.077 | 0.272 | 0.066 | 0.029 | – | – | – | – | – | –
IFWM3310 (antibody, IgG1, V domains shown) VH: EVQLVQSGAEVKKPGESLKISCKGSGYSFTSYWIGWVRQMPGKGLEWMGIIDPSDSDTRYSPSFQGQVTISADKSISTAYLQWSSLKASDTAMYYCARHPGLNWAPDFDYWGQGTLVTVSS VL: DIQMTQSPSSLSASVGDRVTITCRASQSIGKSLNWYQQKPGKAPKLLIYFASSLQSGVPSRFSGSGSGTDFTLTISSLQPEDFATYYCQQSYDFPLTFGQGTKVEIK | – | – | – | – | – | – | – | – | – | – | – | 169 | 166 | 473 | 81 | 96 | 258
IFWM3405 (antibody, IgG1, V domains shown, mAb; IgG1/kappa said of the parent and of selected mAbs; also called IFWB3140) VH: EVQLVQSGAEVKKPGESLKISCKGSGYSFTSYWIGWVRQMPGKGLEWMGIIDPSDSDTRYSPSFQGQVTISADKSISTAYLQWSSLKASDTAMYYCARHPGLAWAPDFDYWGQGTLVTVSS VL: DIQMTQSPSSLSASVGDRVTITCRASQSIANNNLNWYQQKPGKAPKLLIHWASSLQSGVPSRFSGSGSGTDFTLTISSLQPEDFATYYCQQGYDTPFTFGQGTKVEIK | 0.015 | 0.039 | 0.036 | 0.022 | 0.019 | 0.067 | 0.02 | 0.026 | 0.068 | 0.035 | 0.016 | – | – | – | – | – | –
IFWM3307 (antibody, IgG1, V domains shown) VH: EVQLVQSGAEVKKPGESLKISCKGSGYSFTSYWIGWVRQMPGKGLEWMGIIDPSDSDTRYSPSFQGQVTISADKSISTAYLQWSSLKASDTAMYYCARHPGLNWAPDFDYWGQGTLVTVSS VL: DIQMTQSPSSLSASVGDRVTITCRASQSIGDFLNWYQQKPGKAPKLLIYFASSLQSGVPSRFSGSGSGTDFTLTISSLQPEDFATYYCQQALDFPLTFGQGTKVEIK | – | – | – | – | – | – | – | – | – | – | – | 501 | 328 | 600 | 100 | 95 | 752
IFWM3304 (antibody, IgG1, V domains shown) VH: EVQLVQSGAEVKKPGESLKISCKGSGYSFTSYWIGWVRQMPGKGLEWMGIIDPSDSDTRYSPSFQGQVTISADKSISTAYLQWSSLKASDTAMYYCARHPGLNWAPDFDYWGQGTLVTVSS VL: DIQMTQSPSSLSASVGDRVTITCRASQSIGSALNWYQQKPGKAPKLLIYFASSLQSGVPSRFSGSGSGTDFTLTISSLQPEDFATYYCQQSYDFPLTFGQGTKVEIK | – | – | – | – | – | – | – | – | – | – | – | 112 | 126 | 237 | 31 | 57 | 157
IFWM371 (antibody, IgG1, V domains shown) VH: EVQLVQSGAEVKKPGESLKISCKGSGYSFTSYWIGWVRQMPGKGLEWMGIIDPSDSDTRYSPSFQGQVTISADKSISTAYLQWSSLKASDTAMYYCARHPGLNWAPDFDYWGQGTLVTVSS VL: not shown | – | – | – | – | – | – | – | – | – | – | – | 32800 | 35700 | 74200 | 43900 | 7300 | –
IFWM3308 (antibody, IgG1, V domains shown) VH: EVQLVQSGAEVKKPGESLKISCKGSGYSFTSYWIGWVRQMPGKGLEWMGIIDPSDSDTRYSPSFQGQVTISADKSISTAYLQWSSLKASDTAMYYCARHPGLNWAPDFDYWGQGTLVTVSS VL: DIQMTQSPSSLSASVGDRVTITCRASQSIAEFLNWYQQKPGKAPKLLIYFASSLQSGVPSRFSGSGSGTDFTLTISSLQPEDFATYYCQQSIDFPLTFGQGTKVEIK | – | – | – | – | – | – | – | – | – | – | – | 295 | 363 | 894 | 40 | 59 | 478
IFWM3400 (antibody, IgG1, V domains shown, mAb; IgG1/kappa said of the parent and of selected mAbs; also called IFWB3135) VH: EVQLVQSGAEVKKPGESLKISCKGSGYSFTSYWIGWVRQMPGKGLEWMGIIDPSDSDTRYSPSFQGQVTISADKSISTAYLQWSSLKASDTAMYYCARHPGLAWAPDFDYWGQGTLVTVSS VL: DIQMTQSPSSLSASVGDRVTITCRASQSIADFLNWYQQKPGKAPKLLIYFASSLQSGVPSRFSGSGSGTDFTLTISSLQPEDFATYYCQQSHSFPLTFGQGTKVEIK | 0.052 | 0.049 | 0.06 | 0.023 | 0.022 | 0.135 | 0.033 | 0.035 | 0.138 | 0.043 | 0.015 | – | – | – | – | – | –
IFWM3416 (antibody, IgG1, V domains shown, mAb; IgG1/kappa said of the parent and of selected mAbs; also called IFWB3151) VH: EVQLVQSGAEVKKPGESLKISCKGSGYSFTSYWIGWVRQMPGKGLEWMGIIDPSDSDTRYSPSFQGQVTISADKSISTAYLQWSSLKASDTAMYYCARHPGLAWAPDFDYWGQGTLVTVSS VL: DIQMTQSPSSLSASVGDRVTITCRASQSIRNTNLNWYQQKPGKAPKLLIHWASSLQSGVPSRFSGSGSGTDFTLTISSLQPEDFATYYCQQGYDTPFTFGQGTKVEIK | 0.029 | 0.069 | 0.068 | 0.029 | 0.045 | 0.103 | 0.028 | 0.049 | 0.112 | 0.064 | 0.035 | – | – | – | – | – | –
IFWM3399 (antibody, IgG1, V domains shown, mAb; IgG1/kappa said of the parent and of selected mAbs; also called IFWB3134) VH: EVQLVQSGAEVKKPGESLKISCKGSGYSFTSYWIGWVRQMPGKGLEWMGIIDPSDSDTRYSPSFQGQVTISADKSISTAYLQWSSLKASDTAMYYCARHPGLAWAPDFDYWGQGTLVTVSS VL: DIQMTQSPSSLSASVGDRVTITCRASQSIDGALNWYQQKPGKAPKLLIYFASSLQSGVPSRFSGSGSGTDFTLTISSLQPEDFATYYCQQAYDFPLTFGQGTKVEIK | 0.03 | 0.037 | 0.05 | 0.025 | 0.021 | 0.088 | 0.03 | 0.029 | 0.189 | 0.029 | 0.013 | – | – | – | – | – | –
IFWM3410 (antibody, IgG1, V domains shown, mAb; IgG1/kappa said of the parent and of selected mAbs; also called IFWB3145) VH: EVQLVQSGAEVKKPGESLKISCKGSGYSFTSYWIGWVRQMPGKGLEWMGIIDPSDSDTRYSPSFQGQVTISADKSISTAYLQWSSLKASDTAMYYCARHPGLAWAPDFDYWGQGTLVTVSS VL: DIQMTQSPSSLSASVGDRVTITCRASQSIANTNLNWYQQKPGKAPKLLIHWASSLQSGVPSRFSGSGSGTDFTLTISSLQPEDFATYYCQQWYDNPLTFGQGTKVEIK | 0.052 | 0.052 | 0.082 | 0.037 | 0.052 | 0.086 | 0.029 | 0.055 | 0.168 | 0.077 | 0.033 | – | – | – | – | – | –
